What was measured:
[1] = test system: MS2 coat protein; assay: apparent KD of MS2 coat protein, switch OFF state (with FMN for OFF switches, without FMN for ON switches); designed switch direction (-1 OFF switch, 1 ON switch): -1; higher = weaker reporter binding; conditions: FMN input: 0 or 200 uM; Eterna round: R93 (includes R88 designs)
Procedure, shortened: (§1)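 Apparent KD per design is the median of normalised cluster binding-curve fits. Designed RNA switches transcribed on-chip from Illumina sequencing clusters were titrated with SNAP-549-labelled MS2 coat protein in twofold steps from 0.7 or 1.5 nM to 3 µM, with 0.8–1.5 h down to 10–20 min per step. Buffer: 100 mM Tris-HCl pH 7.5, 80 mM KCl, 4 mM MgCl2, without or with constant ligand.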

[2] = test system: MS2 coat protein; assay: apparent KD of MS2 coat protein, switch ON state; designed switch direction (-1 OFF switch, 1 ON switch): -1; higher = weaker reporter binding; conditions: FMN input: 0 or 200 uM; Eterna round: R93 (includes R88 designs)
Procedure, shortened: as §1

| Sequence | apparent KD of MS2 coat protein [1] | apparent KD of MS2 coat protein [2] |
| --- | --- | --- |
| AAAAAAAAAGGAUAUACAGGAGGUAAGGUCGAAAAAAAAAAACAUGAGGAUCACCCAUGUAGAAGGUUUAAAAA [Excls2-VIII] | 30.6 nM | 27 nM |
| AUUAUGUCAGGAUAUCAGUAGUAAAAAAAAAAAAUUACUACUGAGAAGGGACAUGAGGAUCACCCAUGUCAAAA [EX4 308: Super Stable 8] | 34 nM | 39 nM |
| CUCAUGUCAGGAUAUCCAUGAAAUGAAGUGAAAGAAAAGAAGGAGAAGGGACAUGAGGAUCACCCAUGUUAGAA [EteRNA is fun!] | 17.1 nM | 34.1 nM |
| AAAAAGGGAGGAUAUGCAUACACACAAAAAAAAAAAAAAAAACAUGAGGAUCACCCAUGUAGAAGGCCCAAAAA [Dora Explored 4 - Jieux - Exclusion 2] | 14.4 nM | 21.1 nM |
| AAACCACAUGAGGAUCACCCAUGUUAGGAUAUGCUAUGGAAAAUAAAAAUAAAACAUAGCAGAAGGGACAAAAA [Denovo 7] | 18.7 nM | 19.3 nM |
| AAAGAGUGAGGAUAUUCGGAUAGGAAAACGAAAACCUAUCCGAAGAAGGCACAUGAGGAUCACCCAUGUAAAAA [67% Ecls-II - Early G segment 2] | 39.5 nM | 37.3 nM |
| GCAGGCCAAGGAUAUACAUGAGGAUCACCCAUGUGAGAGAAAAAAGUGAGAAAGAAAAGUAGAAGGUGGUUUGG [salish99-ex3-113] | 114 nM | 71.7 nM |
| AAAACGGUAGGAUAUACAUGAGGAUCACCCAUGUUAAAUUUAAAAAUAAAAUUAAAAUGUAGAAGGACCAAAAA [Mai Tai1] | 35 nM | 31.5 nM |
| GAAAAACAUGAGGAUCACCCAUGUAAGGAUAUGCUAAAAAACGCAAAAAAAGCGAAUAGCAGAAGGUACAAAAA [Mat - Exclusion 1 - Eli mod - D83] | 33.4 nM | 20.6 nM |
| AGCACGUCAGGAUAUACGAAAAAAAAGGGAAACAACAAGGGACAUGAGGAUCACCCAUGUAGAAGGGACUAGCA [Diamond 97] | 44.3 nM | 49.4 nM |
| AAGAGUAGAGGAUAUACAAAGGGAGAGUCGAAAGACUCAAAACAUGAGGAUCACCCAUGUAGAAGGCUACUCAA [Hyphema Seclusion Mod 62% 7] | 746 nM | 213 nM |
| AAUAAACAUGAGGAUCACCCAUGUGAGGAUAUGGUAUUAUUAGGACAGUAAUGAUAUACCAGAAGGCACAAAUA [JR_Exc001_Sub1104] | 53.5 nM | 36.9 nM |
| AAUAGUGAAGGAUAUACUGGAGGAGUACGAUAAAAGAAAGAACAUGAGGAUCACCCAUGUAGAAGGUCAGAAGU [JR_Exc002_Sub1227] | 24.1 nM | 22.9 nM |
| AGCUAGUCAGGAUAUACGAGAAUGACAAAAGACGUGAAGGGACAUGAGGAUCACCCAUGUAGAAGGGACUAGCA [Diamond 24] | 117 nM | 39.2 nM |
| GAAAAGUCAGGAUAUGUACAAAAUAAAAUAAAAAUAAAAGUACAGAAGGGACAUGAGGAUCACCCAUGUAAAAG [Mat - Exclusion 4 - Mayanna - D120] | 54.2 nM | 72.4 nM |
| CUCUUGUCAGGAUAUCCAAGAAAAGAAAAGAAAGAAAAGAAGGAGAAGGGACAUGAGGAUCACCCAUGUAAGAA [EteRNA is fun!] | 113 nM | 72.3 nM |

| Sequence | apparent KD of MS2 coat protein [1] | apparent KD of MS2 coat protein [2] |
| --- | --- | --- |
| AAAAAGUGAGGAUAUACAUGAGGAUCACCCAUGUGAAAUCGGAAAAAAAACGAAAAAAGUAGAAGGCACAAAAA [Fiskers Exclusion 3 D3] | 22.1 nM | 19.1 nM |
| AUGUAGGGAGGAUAUACAUAGAUACAGAUUCAUGUGGAACUACAUGAGGAUCACCCAUGUAGAAGGCCCUAAAA [Mat - Same state - Mayanna Mod - D125] | 117 nM | 27.4 nM |
| GUCAGCUGAGGAUAUACAGGUGAUGCCGCAUAACAAAAUAUACAUGAGGAUCACCCAUGUAGAAGGCGGAAGAC [Zalaa] | 20.2 nM | 73.4 nM |
| AAAAAUGGAGGAUAUACAUGAGGAUCACCCAUGUGUAAAAAAAAUUACACAAAAGAAAGUAGAAGGCCAUAAAG [Mat - Exclusion 3 - Mayanna mod - D108] | 139 nM | 59.3 nM |
| CAGUACUGAGGAUAUACAUGAGGAUCACCCAUGUAUCAAAGCUAGGAAACUAGCACAUGUAGAAGGCAGUACUG [Ex3: 823] | 132 nM | 25.7 nM |
| AAAGAUGCAGGAUAUACAUGAGGAUCACCCAUGUUAGACCAGAAAUGGGAAAAAGAAAGUAGAAGGGCAUAAAA [Ex 3 May 33] | 119 nM | 18.2 nM |
| GCUUGGGUAGGAUAUACAUGAGGAUCACCCAUGUGAGAGAAAAAAGUGAGAAAGAAAAGUAGAAGGACCUGAGG [salish99-ex3-107] | 244 nM | 123 nM |
| CUCUUGUCAGGAUAUUGAAGAAAAGAAAAGAAAGAAAAGAACAAGAAGGGACAUGAGGAUCACCCAUGUAAGAA [EteRNA is fun!] | 60.7 nM | 74.2 nM |
| CUCAUGUCAGGAUAUCAGUAGUAAAAAAAAAAAAUUACUACUGAGAAGGGACAUGAGGAUCACCCAUGUACCUU [EX4 302: Super Stable 2] | 29.1 nM | 25.4 nM |
| ACAAAGUGAGGAUAUGCUAUCGUACAAUAUAGUUAUCGUAUGCAGAAGGCACAUGAGGAUCACCCAUGUAAGAA [Ex 4 Tesla 9] | 36.7 nM | 40.7 nM |
| AAGUCGUGAGGAUAUACAUGGAUAUACAUUCAUGUGGACCUACAUGAGGAUCACCCAUGUAGAAGGCACGAAUA [AJ 49] | 53.5 nM | 35.2 nM |
| GAAAAGUUAGGAUAUACAGAUAAAAAAACGAAAAAAAAUCUGUAGAAGGAACAUGAGGAUCACCCAUGUAAAAG [Mat - Exclusion 4 - Mayanna - D103] | 30.8 nM | 34.7 nM |
| AGUCGGCGAGGAUAUACAUGAGGAUCACCCAUGUGAGAGAAAAAAGUGAGUUAGACAAGUAGAAGGCGCUGACA [JL Lego Mod 7] | 172 nM | 44.1 nM |
| AACAGUACAGGAUAUACAUGAGGAUCACCCAUGUAGAGAGAAUAAAACAAAAAUAAAUGUAGAAGGGUACUGAA [Mat - Exclusion 3 - Eli mod - D68] | 25.5 nM | 24.5 nM |
| AAAAAGUGAGGAUAUGGUAAAAAAAAAAAAAAAAAAAACCUCCAGAAGGCACAUGAGGAUCACCCAUGUAAAAA [Jolly's Folly 2 - Jieux - Exclusion 4] | 34.6 nM | 75.8 nM |
| AAGGAUAGAGGAUAUACAUAGAUACAGAUUCAUGUAGAACUACAUGAGGAUCACCCAUGUAGAAGGCUAUCAUA [AJ 32] | 89.1 nM | 27.9 nM |

— the supplement of paper PMC9170038
